From patent publication US20220002432A1 (VIRTUOSO BINCO, published 2022) come the findings set out here.

Changes are numbered by the printed parent chain.

For orientation: EC50 (read off the curve) means the midpoint of the concentration-response curve. What is called Kd is the free concentration of one partner at which half of the binding sites on the other are occupied at equilibrium, for simple one-to-one binding. A word on the koff: it is the first-order rate constant of dissociation. The kon is the second-order rate constant of association. By EC50 is commonly meant the midpoint of the concentration-response curve.

The target in assay [1] is T1, Rhesus-ICAM1 (rhesus, UniProt Q5NKV6 28-480, limits assumed).
T1 sequence (looked up): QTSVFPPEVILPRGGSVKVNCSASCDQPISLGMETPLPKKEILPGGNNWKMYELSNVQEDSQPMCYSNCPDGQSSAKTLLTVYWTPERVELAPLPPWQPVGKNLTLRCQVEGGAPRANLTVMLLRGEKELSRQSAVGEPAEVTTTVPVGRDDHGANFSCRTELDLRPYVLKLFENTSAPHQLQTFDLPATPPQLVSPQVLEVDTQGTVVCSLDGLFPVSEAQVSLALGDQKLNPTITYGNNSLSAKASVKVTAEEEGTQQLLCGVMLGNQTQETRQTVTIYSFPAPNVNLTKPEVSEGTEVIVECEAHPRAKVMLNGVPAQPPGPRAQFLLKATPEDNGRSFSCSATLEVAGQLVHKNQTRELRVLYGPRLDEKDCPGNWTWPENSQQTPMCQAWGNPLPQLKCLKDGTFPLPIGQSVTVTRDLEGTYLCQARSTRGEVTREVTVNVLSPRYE
In words: ELISA: plate coated with 1 ug/ml recombinant rhesus ICAM1 ECD, serially diluted antibody, OD450. For orientation: In an ELISA, binding on a coated surface is turned into a signal by an enzyme label.
Method: (§1) The plate was coated overnight at 4° C. with 1 μg/ml recombinant CD38 or ICAM1. After washing 3 times, the plate was blocked with 300 μl 1% BSA in PBST at 37° C. for 1 hour. Serially diluted antibodies were added and incubated at 37° C. for 1 hour. The plate was then washed 4 times with PBST and incubated with 1:5000 diluted 2nd antibody (Sigma, Cat #A0293) at 37° C. for 1 hour.

Assay [2] addresses T2, recombinant human ICAM1 (human, UniProt P05362 28-480, limits assumed). The experiment in a line: ELISA: plate coated with 1 ug/ml recombinant human ICAM1 ECD, serially diluted antibody, OD450.
Method: as §1
Assay [3] has as its target T2, recombinant human ICAM1. The experiment in a line: SPR (Biacore 8K), antibody captured, antigen injected.
Method: (§2) The binding kinetics of the anti-CD38 and anti-ICAM1 antibodies were evaluated on a Biacore 8K instrument (GE Healthcare). Biacore Series S CM5 sensor chips were immobilized with monoclonal mouse anti-human IgG (Fc) antibody (human antibody capture kit from GE Healthcare). Antibodies were captured on each flow cell. Serial 3-fold dilutions of each antigen were injected at a flow rate of 30 μl/min. Each sample was analyzed with 1 min association and 10 min dissociation at room temperature (25° C.). After each injection, the chip was regenerated using 3M MgCl₂. A 1:1 Langmuir model of simultaneous fitting of kₒₙ and koff was used for kinetics analysis.
Assay [4] concerns the target T1, Rhesus-ICAM1. Described as above.
Method: as §2
Assay [5] has as its target T3, ICAM1 on the surface of DU145 cells (human, UniProt P05362 28-532).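 Note: purified antibodies in dilution series bound to cells for 1 h at 4 °C, detected with a fluorescent secondary antibody (1 h, 4 °C, dark), read by flow cytometry.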
T3 construct: whole, on cells
The experiment in a line: flow cytometry, DU145 cells. (Flow cytometry measures light scatter and fluorescence of single cells or particles in a stream.)
Method: Harvested cells were centrifuged at 2000 rpm for 5 min and resuspended with 10-15 ml ice-cold culture medium. Cells were counted and then 3×10⁶ cells were resuspended per mL of blocking buffer (PBS plus 2% FBS). 100 μl of the cell suspension was dispensed into each well of a 96-well plate and incubated at room temperature for 10-20 min. […] While incubating, purified antibodies were diluted to the desired dilution with blocking buffer. After a 10-20 minutes incubation, cells were centrifuged for 5 min at 2000 rmp in a refrigerated centrifuge. Blocking buffer was aspirated, and cells were resuspended in 100 μl/well diluted antibodies and incubated for 1 hour at 4° C. The cells were then washed 3 times with PBS plus 2% FBS. After the final wash, the cells were resuspended in 100 μl 1:500 diluted secondary antibody (Invitrogen, Cat #: A10631) and incubated for 1 hour at 4° C. in the dark. The cells were then washed 3 times with 200 μl PBS by centrifuging at 2000 rpm for 5 min. After the last wash, the cells were resuspended in 300 μl cold PBS and analyzed on a FACSVerse™ (BD Biosciences) flow cytometer.

T2 sequence (P05362 28-480 limits assumed): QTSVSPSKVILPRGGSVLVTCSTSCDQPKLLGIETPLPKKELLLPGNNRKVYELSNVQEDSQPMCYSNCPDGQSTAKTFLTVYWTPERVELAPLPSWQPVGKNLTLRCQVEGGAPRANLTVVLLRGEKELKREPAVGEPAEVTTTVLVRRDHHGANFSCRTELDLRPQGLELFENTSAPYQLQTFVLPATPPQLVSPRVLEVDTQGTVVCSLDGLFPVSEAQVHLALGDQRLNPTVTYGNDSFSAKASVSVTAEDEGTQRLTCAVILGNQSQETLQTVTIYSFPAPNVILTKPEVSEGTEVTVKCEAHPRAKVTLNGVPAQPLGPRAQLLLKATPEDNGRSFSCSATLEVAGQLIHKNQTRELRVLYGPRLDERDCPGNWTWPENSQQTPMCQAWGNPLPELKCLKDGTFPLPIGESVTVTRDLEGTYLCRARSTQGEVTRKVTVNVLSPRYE
T3 sequence (P05362 28-532): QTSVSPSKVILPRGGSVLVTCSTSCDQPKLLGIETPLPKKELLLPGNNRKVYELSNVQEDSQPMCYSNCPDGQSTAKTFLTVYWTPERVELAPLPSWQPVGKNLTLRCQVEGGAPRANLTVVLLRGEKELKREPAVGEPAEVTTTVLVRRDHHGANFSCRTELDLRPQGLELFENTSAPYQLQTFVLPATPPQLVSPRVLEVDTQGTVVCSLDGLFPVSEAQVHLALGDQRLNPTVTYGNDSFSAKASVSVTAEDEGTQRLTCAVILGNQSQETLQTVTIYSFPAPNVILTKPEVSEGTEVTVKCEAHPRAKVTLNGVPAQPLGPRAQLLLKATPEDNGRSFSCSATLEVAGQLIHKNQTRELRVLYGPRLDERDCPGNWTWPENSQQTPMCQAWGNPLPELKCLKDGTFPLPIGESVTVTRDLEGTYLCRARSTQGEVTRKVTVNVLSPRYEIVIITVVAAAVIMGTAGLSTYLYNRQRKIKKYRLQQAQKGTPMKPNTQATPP

B1: 8E5 (antibody, human IgG1, kappa, V domains shown)
VH: QSLEESGGRLVTPGTPLTLTCTVSGFSLSNYAMNWVRQAPGKGLEWIGYISTRGSAYYASWAKGRFTISKTSTTVDLKMTSPTTEDTATYFCARGDLVGGGYIRGSFDPWGPGTLVTVSS
VL: AQVLTQTPSPVSAAVGGTVTINCQSSQSVVSDKLLSWFQQKPGQPPKLLIYGASTLASGVPSRFKGSGSGTQFTLTISDVQSDDAATYYCAGAYSTDSDIRAFGGGTEVVVKR
notes: Rabbit-human chimeric anti-ICAM1: rabbit VH and VL on human IgG1 and kappa constant regions
As to B1, the “EC50 (read off the curve)” value in assay [1] was about 0.04 nM. In addition, the concentration for a half-maximal effect (EC50 (read off the curve)) in assay [2] is about 0.04 nM. In assay [3], the Kd worked out at 24.4 nM, the koff was 0.00361 s⁻¹ and the on-rate constant (kon) amounted to 148000 M⁻¹ s⁻¹. In assay [4], this molecule returned a Kd of 7.06 nM, an off-rate constant (koff) of 0.00189 s⁻¹ and a kon of 268000 M⁻¹ s⁻¹. Besides, in assay [5], the midpoint of the response, the EC50, lay at 0.124 nM and the “Max Binding MFI” value was found to be 9190 MFI.

B2: 3D8 (antibody, human IgG1, kappa, V domains shown)
VH: QSLEESGGDLVKPGASLTLTCTASGFSFSSSYWMCWVRQAPGKGLEWIACIDGGSAGYNYYATWAKGRFTISKTSSTTVTLQMTSLTAADRATYFCARGPGSSYNLWGPGTLVTVSS
VL: DIVMTQTPASVEAAVGGTVTIKCQASQSISSYLSWYQQKPGQPPKLLIYRASTLASGVPSRFKGSGSGTEFTLTISDLESADAATYYCQSYVFGSSRSYDNAFGGGTEVVVKR
notes: as for B1
Take B2: the concentration giving a half-maximal response (EC50 (read off the curve)) in assay [1] is about 0.04 nM. In addition, in assay [2], the “EC50 (read off the curve)” value was about 0.04 nM. Besides, in assay [3], the Kd came out at 16.8 nM, the koff was found to be 0.00909 s⁻¹ and the kon amounted to 540000 M⁻¹ s⁻¹. In assay [4], the Kd was 17.3 nM, the koff came to 0.0348 s⁻¹ and the kon is 2.01e+06 M⁻¹ s⁻¹. Further, in assay [5], a half-maximal effect (EC50) was put at 0.208 nM and the “Max Binding MFI” value was 6430 MFI.

B3: 14B3 (antibody, human IgG1, kappa, V domains shown)
VH: QSLEESGGDLVKPGASLTLTCTASGFSSSSGYYICWVRQAPGKGLEWIACIGAGSGAAYYASWAKGRFTMSKTSSTTVTLQMTSLTAADTATYFCARGGFVVGGGYGGYCFNLWGPGTLVTVSS
VL: AQVLTQTASSVSATVGGTVTISCQSSESVDVNNLAWYQQKPGQPPKLLIYSASTLASGVPSRFKGSGSGTQFTLTVSDLESADAATYYCAGGYSGNIFAFGGGTAVVVKR
notes: as for B1
Take B3: the “EC50 (read off the curve)” value in assay [1] was about 0.04 nM. In addition, the “EC50 (read off the curve)” value in assay [2] is about 0.04 nM. Further, in assay [3], the Kd stood at 2.85 nM, the koff worked out at 0.00027 s⁻¹ and the kon stood at 94800 M⁻¹ s⁻¹. In assay [4], this molecule displayed a Kd of 3.2 nM, a koff of 0.000596 s⁻¹ and a kon of 186000 M⁻¹ s⁻¹. For the same molecule, in assay [5], the midpoint of the response, the EC50, lay at 6.01 nM and the “Max Binding MFI” value is 2940 MFI.

B4: 11F2 (antibody, human IgG1, kappa, V domains shown)
VH: QSVEESGGGLVKPGGTLTLTCTVSGFSLSSHAMGWVRQAPGKGLEYIGIIGSSDRTYYASWAKGRFTISKTSTTVDLKITSPTTEDTATYFCVRDPYDSYDDGYRLWGPGTLVTVSS
VL: AYDMTQTPASVEVAVGGTVTIKCQASQSIYRYLSWYQKKPGQRPKFLIYDASKLASGVPSRFEGSGSGTEFTLTISGAQSDDAATYYCQQAYSSGSIDNAFGGGTEVVVKR
notes: as for B1
For B4, in assay [1], the “EC50 (read off the curve)” value was about 0.04 nM. In assay [2], the “EC50 (read off the curve)” value was about 0.04 nM. Besides, in assay [3], the Kd came to 0.29 nM, the off-rate constant (koff) came to 0.000131 s⁻¹ and the kon was found to be 456000 M⁻¹ s⁻¹. In assay [4], this molecule came in with a Kd of 0.25 nM, a koff of 0.000224 s⁻¹ and a kon of 914000 M⁻¹ s⁻¹. Moreover, in assay [5], a half-maximal response (EC50) required 1.31 nM and the “Max Binding MFI” value was determined as 4060 MFI.

B5: 6G8 (antibody, human IgG1, kappa, V domains shown)
VH: B4 VH with H31Y, D54G, R55S, S60T, D102A, G103A
VL: B4 VL with T5S, R31S, K38Q, F46L, E63T, A78V, G95S, S96N, I97V, A100V
notes: as for B1
Take B5: the “EC50 (read off the curve)” value in assay [1] was about 0.04 nM. Further, in assay [2], the “EC50 (read off the curve)” value is about 0.04 nM. In assay [3], the Kd was found to be 1.7 nM, the koff came to 0.000533 s⁻¹ and the kon stood at 314000 M⁻¹ s⁻¹. In assay [4], binding was put at a Kd of 0.85 nM, the koff is 0.00126 s⁻¹ and the kon was 1.47e+06 M⁻¹ s⁻¹. Also, in assay [5], a half-maximal effect (EC50) was put at 2.23 nM and the “Max Binding MFI” value is 4190 MFI.

B6: 16E4 (antibody, human IgG1, kappa, V domains shown)
VH: QSVEESGGRLVTPGTPLTLTCTVSGFSLSSHAMGWVRQAPGKGLQYIGIIGSSGSTYYASWAKGRFTISKTSTTVDLRLTSPTTEDTATYFCVRDPYDSFGDAYRLWGPGTLVTVSS
VL: B4 VL with R31S, L33C, K38Q, E63K, A78M, G95S, S96N, I97V
notes: as for B1
For B6, the “EC50 (read off the curve)” value in assay [1] was about 0.04 nM. Moreover, the “EC50 (read off the curve)” value in assay [2] was about 0.04 nM. Also, in assay [3], the Kd is 0.57 nM, the koff worked out at 0.000134 s⁻¹ and the kon stood at 237000 M⁻¹ s⁻¹. In assay [4], this molecule returned a Kd of 0.54 nM, a koff of 0.000277 s⁻¹ and a kon of 517000 M⁻¹ s⁻¹. For the same molecule, in assay [5], the EC50 came out at 1.45 nM and the “Max Binding MFI” value stood at 3700 MFI.

B7: 8B12 (antibody, human IgG1, kappa, V domains shown)
VH: B4 VH with S30T, Y100F
VL: B4 VL with R31S, K38Q, L54V, E63K, G77A, A78V, G95S, S96N, I97V, V108M
notes: as for B1
Turning to B7, the “EC50 (read off the curve)” value in assay [1] is about 0.04 nM. Also, the “EC50 (read off the curve)” value in assay [2] was about 0.04 nM. Moreover, in assay [3], the Kd worked out at 0.26 nM, the koff was 0.000115 s⁻¹ and the on-rate constant (kon) turned out to be 442000 M⁻¹ s⁻¹. Besides, in assay [4], the dissociation constant Kd came to 0.88 nM, the koff came to 0.000658 s⁻¹ and the kon stood at 746000 M⁻¹ s⁻¹. In addition, in assay [5], the EC50 amounted to 1.02 nM and the “Max Binding MFI” value is 3750 MFI.

B8: 15D10 (antibody, human IgG1, kappa, V domains shown)
VH: QSVEESGGRLVTPGTPLTLTCTASGFSLNNYYMSWVRQAPGKGLEWIGIISDSDNTYYASWAKGRFTISKTSTTVDLKITSPTTEDTATYFCARDWSLDSSSGYYYYDMDLWGPGTLVTVSA
VL: AYDMTQTPASMEVAVGGTVTIKCQASQNIHSWLAWFQQKPGQPPKRLIYKASTLASGVPSRFKGSGSGTQFTLTISGVQSDDAATYYCQQGYSRSDGEHVFGGGTEVVVKR
notes: as for B1
B8: the “EC50 (read off the curve)” value in assay [1] is about 0.04 nM. In addition, in assay [2], the “EC50 (read off the curve)” value was about 0.04 nM. In assay [3], the Kd was 2.12 nM, the koff was found to be 0.000181 s⁻¹ and the kon worked out at 85500 M⁻¹ s⁻¹. In assay [4], this molecule returned a Kd of 1.79 nM, a koff of 0.000421 s⁻¹ and an association rate constant (kon) of 236000 M⁻¹ s⁻¹. In addition, in assay [5], the midpoint of the response, the EC50, lay at 0.879 nM and the “Max Binding MFI” value came out at 5000 MFI.

B9: 11G7 (antibody, human IgG1, kappa, V domains shown)
VH: QSVEESGGRLVTPGTPLTLTCTVSGFSLSDYYMSWVRQAPGKGLEWIGIISDSGSTYYASWAKGRFTISKTSSTTVDLKITSPTTEDTATYFCARDWSYDSSSGYYYYDMDLWGPGTLVTVSA
VL: B8 VL with M11V, N28S, H30N, A34S, Q37H, P59S, Q79E, D81A
notes: as for B1
Consider B9, for which the “EC50 (read off the curve)” value in assay [1] was about 0.04 nM. The “EC50 (read off the curve)” value in assay [2] is about 0.04 nM. In assay [3], the Kd worked out at 2.65 nM, the koff came to 0.000271 s⁻¹ and the association rate constant (kon) came out at 103000 M⁻¹ s⁻¹. In assay [4], this molecule had a Kd of 4.28 nM, a koff of 0.000624 s⁻¹ and a kon of 146000 M⁻¹ s⁻¹. Also, in assay [5], the response was half-maximal at 1.04 nM (EC50) and the “Max Binding MFI” value was 4820 MFI.

B10: 5B12 (antibody, human IgG1, kappa, V domains shown)
VH: QSLEESGGRLVTPGTPLTLTCTVSGFSLSSYGMSWVRQAPGKGLEYIGWISFSGSAYYANWAKGRFTISKTSTTVDLKITSPTTEDTATYFCARGGDYGGSTYILNLWGPGTLVTVSS
VL: AFELTQTPSSVEAAVGGTVTIKCQASESIDSYLSWYQQKPGQPPKLLIYAASTLASGVSSRFKGSGSGTEFTLTISDLESADAATYYCQSYSGTITTSGGAFGGGTEVVVKR
notes: as for B1
Turning to B10, the “EC50 (read off the curve)” value in assay [1] is about 0.04 nM. Also, in assay [2], the “EC50 (read off the curve)” value is about 0.04 nM. Moreover, in assay [3], the Kd is 2.74 nM, the koff amounted to 0.000584 s⁻¹ and the kon stood at 213000 M⁻¹ s⁻¹. In assay [4], the Kd worked out at 8.2 nM, the dissociation rate constant (koff) was 0.00218 s⁻¹ and the kon is 266000 M⁻¹ s⁻¹. Also, in assay [5], a half-maximal effect (EC50) was put at 0.113 nM and the “Max Binding MFI” value is 5940 MFI.

B11: 10B8 (antibody, human IgG1, kappa, V domains shown)
VH: B10 VH with T15G, P16S
VL: B10 VL with D30N, T96S
notes: as for B1
For the molecule B11, in assay [1], the “EC50 (read off the curve)” value is about 0.04 nM. Moreover, the “EC50 (read off the curve)” value in assay [2] was about 0.04 nM. In assay [3], the Kd was 3.32 nM, the koff was 0.000682 s⁻¹ and the kon was 206000 M⁻¹ s⁻¹. In assay [4], this molecule gave a dissociation constant (Kd) of 8.27 nM, a koff of 0.00245 s⁻¹ and an on-rate (kon) of 296000 M⁻¹ s⁻¹. In addition, in assay [5], the EC50 was 0.251 nM and the “Max Binding MFI” value was 6220 MFI.
